Earlier results as cited in publication PMC8515877.

Target: GnRH receptor (Mus musculus) (UniProt Q01776)
UniProt Q01776, sequence (Q01776 whole entry): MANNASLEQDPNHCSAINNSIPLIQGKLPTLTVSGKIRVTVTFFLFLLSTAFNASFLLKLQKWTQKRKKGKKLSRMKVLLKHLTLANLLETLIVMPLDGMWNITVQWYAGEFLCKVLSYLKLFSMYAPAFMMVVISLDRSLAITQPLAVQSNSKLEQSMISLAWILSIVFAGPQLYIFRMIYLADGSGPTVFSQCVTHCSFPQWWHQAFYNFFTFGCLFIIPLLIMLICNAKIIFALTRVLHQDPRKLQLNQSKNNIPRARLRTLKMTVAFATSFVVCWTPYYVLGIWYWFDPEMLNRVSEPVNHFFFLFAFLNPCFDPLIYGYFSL

GnRH, sequence (P13562 whole entry, looked up): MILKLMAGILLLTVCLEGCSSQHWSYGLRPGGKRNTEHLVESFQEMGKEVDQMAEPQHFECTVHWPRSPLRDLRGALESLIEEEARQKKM

In the case of GnRH (from UniProt P13562), the Kd is given as 1.4 nM.
